Data as given in PMC12316308, “Interactions of substrates and phosphinyl containing inhibitors with bacterial and human zinc proteases” (PLOS One, 2025).
The star is where a group is joined. Dnp = O=[N+]([O-])c1ccc(*)c([N+](=O)[O-])c1; Mca = COc1ccc2c(CC(=O)*)cc(=O)oc2c1

What was measured:
[1] = target: T1, TLN (Bacillus thermoproteolyticus, UniProt P00800); assay: Enzymatic activity against ES001 and ES005; assay type: biochemical; set-up: purchased Calbiochem (San Diego, CA, USA); settings: 10 µM substrate, DMSO omitted, n = 4
T1 sequence (P00800 233-548): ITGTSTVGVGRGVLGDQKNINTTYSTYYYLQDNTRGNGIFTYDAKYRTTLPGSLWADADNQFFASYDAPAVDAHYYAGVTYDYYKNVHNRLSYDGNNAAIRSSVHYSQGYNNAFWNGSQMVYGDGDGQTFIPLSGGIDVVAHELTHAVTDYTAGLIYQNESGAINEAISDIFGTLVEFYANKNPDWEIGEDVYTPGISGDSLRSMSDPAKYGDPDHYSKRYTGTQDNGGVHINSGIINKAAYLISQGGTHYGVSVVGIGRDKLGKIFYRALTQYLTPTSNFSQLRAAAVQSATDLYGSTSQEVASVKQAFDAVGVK
Method: (§1) Determination of reaction velocities. The substrate ES001 was used for APMA activated MMP-9 (MMP-9(A)), Mag-Trypsin activated MMP-9 (MMP-9(MT)) and MMP-14, while the substrate ES005 was used for ALN, PLN and TLN. The reaction velocities/initial rates (v) were determined at 37°C, at an excitation wavelength of 320 nm and an emission wavelength of 405 nm with a slit width of 10 nm using either a Perkin Elmer LS 50 Luminescence spectrometer and the FL WinLab Software Package (Perkin Elmer) or a Clario Star micro plate reader (CLARIOstar® BMG LABTECH).
(§2) To compare the activity of these enzymes against ES001 and ES005 assays were conducted using the same assay condition for all enzymes. The differences from the testing of phosphinic compounds described in the Material and Methods section were that DMSO was omitted, and the concentration of both substrates was 10 µM. A Perkin Elmer LS50 Luminescence Spectrometer was used to measure the activity. Reactions were monitor for one minute, and initial reaction velocities were determined from the activity curves. For each enzyme, the reaction with the presumed optimal substrate was performed first at an arbitrary enzyme concentration, followed immediately by the reaction with the alternate substrate using the same enzyme concentration.

[2] = target: T2, PLN (Pseudomonas aeruginosa, UniProt P14756); settings: 1% DMSO, less certain due to substrate quenching above 10 µM; cited from earlier work
T2 sequence (P14756 198-498): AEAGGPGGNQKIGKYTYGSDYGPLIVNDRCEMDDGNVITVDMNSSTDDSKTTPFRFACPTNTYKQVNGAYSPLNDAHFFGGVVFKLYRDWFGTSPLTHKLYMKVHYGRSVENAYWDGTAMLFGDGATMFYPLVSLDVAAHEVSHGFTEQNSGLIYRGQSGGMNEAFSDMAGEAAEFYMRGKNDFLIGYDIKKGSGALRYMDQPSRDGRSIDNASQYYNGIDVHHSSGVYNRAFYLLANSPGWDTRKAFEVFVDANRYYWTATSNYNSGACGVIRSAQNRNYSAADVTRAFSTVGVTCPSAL

[3] = target: T2, PLN; assay type: biochemical; set-up: purchased Calbiochem (San Diego, CA, USA)
Method: as §1, §2

[4] = target: T3, ALN (Staphylococcus aureus, UniProt P81177); settings: 1% DMSO, less certain due to substrate quenching above 10 µM; cited from earlier work
T3 sequence (P81177 209-509): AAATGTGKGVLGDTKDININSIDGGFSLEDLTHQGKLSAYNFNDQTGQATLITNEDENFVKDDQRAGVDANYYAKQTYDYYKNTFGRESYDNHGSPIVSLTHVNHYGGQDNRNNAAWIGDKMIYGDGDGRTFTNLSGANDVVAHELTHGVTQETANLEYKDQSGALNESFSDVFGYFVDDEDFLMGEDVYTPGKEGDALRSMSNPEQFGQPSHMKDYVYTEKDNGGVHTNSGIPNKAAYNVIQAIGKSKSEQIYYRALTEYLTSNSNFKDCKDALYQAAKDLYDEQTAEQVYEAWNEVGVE

[5] = target: T4, MMP-9(A) (Homo sapiens, UniProt P14780); assay: Enzymatic activity against ES001 and ES005; assay type: biochemical; settings: 10 µM substrate, DMSO omitted, n = 4
T4 construct: made in house; host or cells: Sf9 and High Five insect cells
T4 sequence (P14780 107-707 limits assumed): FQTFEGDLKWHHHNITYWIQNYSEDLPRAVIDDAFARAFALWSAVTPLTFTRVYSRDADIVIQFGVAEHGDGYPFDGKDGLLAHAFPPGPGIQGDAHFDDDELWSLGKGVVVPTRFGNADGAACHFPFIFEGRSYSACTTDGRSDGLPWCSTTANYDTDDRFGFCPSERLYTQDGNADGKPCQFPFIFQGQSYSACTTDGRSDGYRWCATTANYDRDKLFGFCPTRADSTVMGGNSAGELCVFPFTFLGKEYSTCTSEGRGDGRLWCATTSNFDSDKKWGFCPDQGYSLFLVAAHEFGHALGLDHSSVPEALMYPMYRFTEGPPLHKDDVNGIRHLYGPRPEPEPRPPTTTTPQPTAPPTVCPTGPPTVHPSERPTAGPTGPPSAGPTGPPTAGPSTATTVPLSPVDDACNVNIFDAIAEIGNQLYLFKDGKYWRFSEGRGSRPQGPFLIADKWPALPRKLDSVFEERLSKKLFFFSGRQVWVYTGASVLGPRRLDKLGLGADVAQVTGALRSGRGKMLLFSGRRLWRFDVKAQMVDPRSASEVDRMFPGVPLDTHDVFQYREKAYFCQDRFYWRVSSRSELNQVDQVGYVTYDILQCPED
Method: as §1, §2

[6] = target: T5, MMP-9(MT) (Homo sapiens, UniProt P14780); assay: Enzymatic activity against ES001 and ES005; assay type: biochemical; settings: 10 µM substrate, DMSO omitted, n = 4
T5 construct: made in house; host or cells: Sf9 and High Five insect cells
T5 sequence (P14780 107-707 limits assumed): as above
Method: as §1, §2

[7] = target: T6, MMP-14 (Homo sapiens, UniProt P50281); assay: Enzymatic activity against ES001 and ES005; assay type: biochemical; settings: 10 µM substrate, DMSO omitted, n = 4
T6 construct: human MT1-MMP/MMP-14 (catalytic domain); purchased Calbiochem (San Diego, CA, USA)
Method: as §1, §2

[8] = target: T1, TLN; settings: 1% DMSO; cited from earlier work
[9] = target: T3, ALN; assay type: biochemical; set-up: purchased BioCentrum Ltd (Kraków, Poland)
Method: as §1, §2

[10] = target: T7, thermolysin (TLN) (Bacillus thermoproteolyticus, UniProt P00800); assay: MALDI-TOF MS analysis of ES005 cleavage; assay type: biochemical; settings: 50 µM ES005, 10 nM TLN, 5 minutes, 37°C
T7 construct: purchased Calbiochem (San Diego, CA, USA)
Method: MALDI-TOF MS spectra were recorded for samples containing different enzyme and substrate concentrations at various time points using an Autoflex Speed instrument (Bruker Daltonik GmbH, Leipzig, Germany) equipped with a 355-nm nitrogen laser for desorption and ionization. The ionization matrix, HCCA, was dissolved to 10 mg/mL in a standard solvent (50% MeCN, 47.5% MQ-water, and 2.5% TFA) by vigorous vortexing. Prior to the MALDI run, a main buffer (0.1 M Hepes, pH 7.5, 10 mM CaCl2) was used to dilute TLN to stock concentrations of 1000, 100 and 50 nM, ES005–500 µM, and galardin to 10 µM. All stocks solutions were kept on ice. For the 0 min incubation, 1 µL TLN and 1 µL galardin were preincubated at 37°C in 8 µL of the main buffer for 10 min before adding 1 µL of ES005. For all other time points, 1 µL of ES005 was added to tubes containing 8 µL buffer and 1 µL of TLN at different concentrations, followed by incubation at 37°C. At each timepoint (0, 1, 3, 5, 10, 20, 30, 60, 120 min), 1 µL of galardin was added to stop enzyme activity. After the final incubation, 1 µL aliquots from each timepoint were mixed with an equal volume of HCCA and spotted onto a MALDI plate. […] The resulting mass spectra were analysed using flexAnalysis software (v3.3, Bruker).

[11] = 10 µM substrate, DMSO omitted, n = 4

With “Mca-Arg-Pro-Pro-Gly-Phe-Ser-Ala-Phe-Lys(Dnp)-OH (Mca-RPPGFSAFK(Dnp)-OH; SMILES COc1ccc2c(CC(=O)N[C@@H](CCCNC(=N)N)C(=O)N3CCC[C@H]3C(=O)N3CCC[C@H]3C(=O)NCC(=O)N[C@@H](Cc3ccccc3)C(=O)N[C@@H](CO)C(=O)N[C@@H](C)C(=O)N[C@@H](Cc3ccccc3)C(=O)N[C@@H](CCCCNc3ccc([N+](=O)[O-])cc3[N+](=O)[O-])C(=O)O)cc(=O)oc2c1) [ES005, fluorescence quenched bradykinin like substrate used for TLN, PLN and ALN]” as the substance, how does the Enzymatic activity [1] read?
Its Enzymatic activity is 326 ± 36 ΔF/min.

What about the Km [2] of the same substance?
Its Km is 24 ± 8 µM.

And the “higher activity for ES005 than ES001” value [3]?
Its value is “approximately 15 fold”.

What about the Enzymatic activity [3, 11] of the same substance?
Its Enzymatic activity is 138 ± 4 ΔF/min.

And the Km [4]?
Its Km is 76 ± 7 µM.

What about the Enzymatic activity [5] of the same substance?
The Enzymatic activity was 5.1 ± 0.2 ΔF/min.

And the Enzymatic activity [6]?
Its Enzymatic activity is 18 ± 8 ΔF/min.

And the Enzymatic activity [7]?
The Enzymatic activity was 8 ± 2 ΔF/min.

And the Km [8]?
Its Km is 6 ± 1 µM.

And the “higher activity for ES005 than ES001” value [9]?
The value was ~5 fold.

And the Enzymatic activity [9, 11]?
The Enzymatic activity was 354 ± 61 ΔF/min.

And the “cleavage sites (MALDI-TOF MS)” value [10]?
The value was “cleaved at three sites: Gly-Phe (m/z 642), Ser-Ala (m/z 876), and Ala-Phe (m/z 947)”.
